# T1: GST-PPARγ fusion protein (immobilized PPARγ) (UniProt P37238 1-505)
# T1 construct: also called FST-PPARγ fusion protein; bacterially expressed PPARγ immobilized on beads; not shown: glutathione S-transferase (GST) moiety; printed as 'FST'
# T1 sequence (looked up): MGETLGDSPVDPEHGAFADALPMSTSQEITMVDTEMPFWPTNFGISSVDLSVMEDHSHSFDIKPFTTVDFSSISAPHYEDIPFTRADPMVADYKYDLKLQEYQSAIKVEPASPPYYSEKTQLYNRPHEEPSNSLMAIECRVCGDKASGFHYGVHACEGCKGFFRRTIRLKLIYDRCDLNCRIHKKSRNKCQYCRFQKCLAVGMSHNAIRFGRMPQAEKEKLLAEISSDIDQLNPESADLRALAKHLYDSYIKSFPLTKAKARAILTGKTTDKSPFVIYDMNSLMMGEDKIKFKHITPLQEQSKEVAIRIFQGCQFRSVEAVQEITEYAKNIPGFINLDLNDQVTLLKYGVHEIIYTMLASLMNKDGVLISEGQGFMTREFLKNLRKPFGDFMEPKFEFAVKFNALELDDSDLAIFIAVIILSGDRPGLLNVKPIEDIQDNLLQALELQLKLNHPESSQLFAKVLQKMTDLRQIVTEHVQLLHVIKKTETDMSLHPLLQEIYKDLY
# T2: full-length mouse PGC-1 (aa 1-797) (mouse, UniProt O70343 1-797, [35S]methionine-labeled in the pull-down assays)
# T2 construct: In vitro reticulocyte translation product in the pull-downs; the same full-length protein was expressed from pSV-SPORT in the transcription assays; also called reticulocyte-translated PGC-1
# T2 sequence: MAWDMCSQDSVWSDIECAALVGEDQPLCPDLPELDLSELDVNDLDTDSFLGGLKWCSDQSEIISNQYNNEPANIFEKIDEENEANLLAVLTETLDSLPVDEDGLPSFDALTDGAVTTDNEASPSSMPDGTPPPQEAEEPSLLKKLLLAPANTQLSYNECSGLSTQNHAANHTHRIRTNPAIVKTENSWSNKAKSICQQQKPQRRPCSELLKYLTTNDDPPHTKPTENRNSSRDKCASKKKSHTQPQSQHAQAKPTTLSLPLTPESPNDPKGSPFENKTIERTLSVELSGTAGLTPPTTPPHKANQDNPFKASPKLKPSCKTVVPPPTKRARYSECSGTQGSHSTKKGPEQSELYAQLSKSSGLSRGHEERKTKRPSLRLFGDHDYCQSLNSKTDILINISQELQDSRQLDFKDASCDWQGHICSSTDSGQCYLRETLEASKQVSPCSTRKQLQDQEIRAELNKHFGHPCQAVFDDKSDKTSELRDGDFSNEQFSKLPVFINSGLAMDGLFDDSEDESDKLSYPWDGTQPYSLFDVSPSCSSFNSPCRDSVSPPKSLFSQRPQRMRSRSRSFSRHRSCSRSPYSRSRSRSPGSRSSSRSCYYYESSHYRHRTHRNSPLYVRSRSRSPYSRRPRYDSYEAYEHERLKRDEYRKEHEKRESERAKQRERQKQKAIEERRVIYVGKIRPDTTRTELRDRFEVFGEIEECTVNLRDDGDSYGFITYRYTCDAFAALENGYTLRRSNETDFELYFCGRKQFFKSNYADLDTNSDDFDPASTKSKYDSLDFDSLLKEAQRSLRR
# B1: PGC-1 1-292 (other)
# chain: MAWDMCSQDSVWSDIECAALVGEDQPLCPDLPELDLSELDVNDLDTDSFLGGLKWCSDQSEIISNQYNNEPANIFEKIDEENEANLLAVLTETLDSLPVDEDGLPSFDALTDGAVTTDNEASPSSMPDGTPPPQEAEEPSLLKKLLLAPANTQLSYNECSGLSTQNHAANHTHRIRTNPAIVKTENSWSNKAKSICQQQKPQRRPCSELLKYLTTNDDPPHTKPTENRNSSRDKCASKKKSHTQPQSQHAQAKPTTLSLPLTPESPNDPKGSPFENKTIERTLSVELSGTAG
# modifications: [35S]methionine-labeled
# notes: In vitro translated; still contains the LXXLL motif (aa 142-146)
# B2: GST fusion of PPARγ 228-505 (receptor, mouse, UniProt P37238 228-505, looked up)
# chain: DIDQLNPESADLRALAKHLYDSYIKSFPLTKAKARAILTGKTTDKSPFVIYDMNSLMMGEDKIKFKHITPLQEQSKEVAIRIFQGCQFRSVEAVQEITEYAKNIPGFINLDLNDQVTLLKYGVHEIIYTMLASLMNKDGVLISEGQGFMTREFLKNLRKPFGDFMEPKFEFAVKFNALELDDSDLAIFIAVIILSGDRPGLLNVKPIEDIQDNLLQALELQLKLNHPESSQLFAKVLQKMTDLRQIVTEHVQLLHVIKKTETDMSLHPLLQEIYKDLY
# notes: not shown: glutathione S-transferase (GST) moiety of pGEX 5X2
# Columns and labels:
# [1] = target: T1, GST-PPARγ fusion protein (immobilized …); assay: pull-down of in vitro-translated 35S-labeled PGC-1 deletion with immobilized GST-PPARγ
# Description: These were then translated into vitro with an [³⁵S]methionine-label. One microliter of each in vitro translation reaction was resolved by SDS-PAGE and autoradigraphed.
# [2] = target: T2, full-length mouse PGC-1 (aa 1-797); assay: pull-down of in vitro-translated PGC-1 with GST-PPARγ deletion
# Description: Most of the nuclear hormone receptor coactivators identified to date interact with the C-terminal AF-2 domain, which is responsible for ligand-dependent transcriptional activation.
Binder,binding result [1],binding result [2]
B1,no binding,–
B2,–,no binding

# From patent publication US20030229204A1 (Dana-Farber, published 2003)
